Data taken from the DeepSol protein solubility set.

assay: soluble on expression in E. coli; label from the status in PepcDB or PDB records

Sequence | soluble on expression in E. coli
SLAHIVTLNTPYREDWLTQLADVVTDPDELLRLLNIDADEKLLAGRSAKKLFALRVPRSFIDRMEKGNPDDPLLRQVLTSQDEFVVASGFSTDPLEEQHSVVPGLLHKYHNRALLLVKGGCAVNCRYCFRRHFPYAENQGNKRNWQTALEYVAAHPELDEMIFSGGDPLMAKEHELDWLLTQLEAIPHIKRLRIHSRLPIVIPARITEALVERFARSTLQILLVNHINHANEVDETFRQAMAKLRRVGVTLLNQSVLLRGVNDNAQTLANLSNALFDAGVMPYYLHVLDKVQGAAHFMVSDDEARQIMRELLTLVSGYLVPKLAREIGGEPSKTPLDLQLRQQ | not soluble
SLASPKRWTTNGLSTNQTLCYTLGEGQPSPFFYLRSARKMPQSVEQHIAAITDRIKDFVRFLDREEVAPVLAELREMFARELRATEGFASHERELHDRIRHESDYEQLRAIHDELNVLEMERFLAISSVSALHANCTEYRDILADRALALAEDEMEHDGRGRAPCPYALCSMGSDGREEQTLITDQDYLIVYGDGGGEAADEWFREFSELIVERLAQIGFKKCTGDIMPSNPTWRGSLSQWRRKLLAIVRYEYEDYAKNLMDLIVISDARHVAGDRDLAATLIATIRALEKDYFQVLWGMAKAATEMKLALGFLKRLWTEGSGEHKGEFNLKLLAWAPLVMNVRILAINQGVPATNTVKRIEHLAREGSFSPSFANGLVEAYEVLTRHRILLQIKVIKGIQKSSYYLNPYTLPAEEREAIRQALLRIEDLQRTIHTNFSIM | not soluble
SLDLFISRHLEQLNSLSFKATPLFEHKAQFYAAPSYLEKYGTPQNVEELTKHNILIWGEKPAREIKTNRGKRMSLSGNFATTNPEALFHGAKRGMGILMTNNVMIKDDLKSGALVPILPDVTADEATVYAYYPKLDYQHTRTQLFLDYLKSRLEEEKRI | not soluble
SLDPSKVTSMSAVEFTPLPTCLQHRSCDACMSSDLTFNCSWCHVLQRCSSGFDRYRQEWMDYGCAQEAEGRMCEDFQD | soluble
SLDSNESKLKQKSPAEFFAENKNIAGFDNPGKSLYTTVRELVENALDSAESIEG | soluble
SLEIERINEHTVKFYMSYGDIEDRGFDREEIWYNRERSEELFWEVMDEVHEEEEFAVEGPLWIQVQALDKGLEIIVTKAQLSKDGQKLELPIPEDKKQEPASEDLDALLDDFQKEEQAVNQEEKEQKLQFVLRFGDFEDVISLSKLNVNGSKTTLYSFENRYYLYVDFCNMTDEEVENQLSILLEYATESSISIHRLEEYGKLIISEHALETIKKHFAS | soluble
SLEQENMEQRVKHESEELLQKFKSTSNLDELIESLGGLGEEAQREAGESLEALKRPVKEMMNDENNHLPQKLHQLKEVVSQLEPDHLKQGAVKKFVNKILGRSPMEQYAQRYKTVEAQVENIIEALLTGKDKLQEDTLMLTQLKGVARERISHLEEQIEMGKQLNAMLESEMTSEEWKNNPTALKKGQQKVISRIKNMSQAIMVLQQSLASVDLIVENNEKLEEAIFNAITMTKNIITVTASIQLALGNQKKVINAVQNVNEATENMLLSNAEMLKKNTEDTLKTLEEPAIAIESFRKAYQDVFAAIELTEQSNERIVSSGKKFIAELDTLNKEMKTKLIESKSTSSS | soluble
SLERSQVFNILRMMPKGAALHLHDIGIVTMDWLVRNVTYRPHCHICFTPRGIMQFRFAHPTPRPSEKCSKWILLEDYRKRVQNVTEFDDSLLRNFTLVTQHPEVIYTNQNVVWSKFETIFFTISGLIHYAPVFRDYVFRSMQEFYEDNVLYMEIRARLLPVYELSGEHHDEEWSVKTYQEVAQKFVETHPEFIGIKIIYSDHRSKDVAVIAESIRMAMGLRIKFPTVVAGFDLVGHEDTGHSLHDYKEALMIPAKDGVKLPYFFHAGETDWQGTSIDRNILDALMLNTTRIGHGFALSKHPAVRTYSWKKDIPIEVCPISNQVLKLVSDLRNHPVATLMATGHPMVISSDDPAMFGAKGLSYDFYEVFMGIGGMKADLRTLKQLAMNSIKYSTLLESEKNTFMEIWKKRWDKFIADVATK | soluble
SLESYTVNRGKGVTRYDICQLPSNSPIEDDRAEEIVQVPILQDNNIKTSTDWMFFGVFDGHGGWTTSSKLRDQLIGYVINELGTIYKPVQGEENLRYVPNSATIDQAMKNGFLKLDHELVNKNIEKLLTDGNKAKAAELLMPALSGSCALLSFYDTNSQMLKVAVTGDSRAILGSFKDNHWTVRQLSIDQTGANPSEVARIISEHPNEPKVIRNGRVLGSLEPTRAFGDCRYKLPAVIQERIYKQFFGRPLPNQLKSPPYVTAEPIITTTKINPNEHDFLVMASDGLYEMLTNEEIVGLVVKWMEKADMIKPRKSWFGFGSADSKLPEVKDVTNDKALKKPLNNKLGNSFLLEDNNVSTHLIRNALSNGGSREQTSMLISIPNPVSRRYRDDLTVTVVFFGKDTKGEDENGTLEVNWNATAG | soluble
SLETQQEGMDISSSLRKLGAQSKLIQTYIDQSLMSPNVQLEEVTALNTNQFLIKQDMKEWSSELYPQLILLNSKSKGFVTKFNSYYPTLKSFVDNKEDREGFSDRLEVLQEMAMTNQENTQRQINELTDLKLQLDKKLKDFDTNVATAQGILSTDGTGKIDQLKNEILNTKKAIQNDLQQIALIPGALNEQGFAIFKEVYSLSKEIIEPAAQAGVAAYNKGKEINNSILEAEKKAVQEATEQGKTALEIESAKKAAREAIEKSKQGEIAAAAAAKTQEYDLMKVIDTEKIKKTFGVFAEVNKLTAEQRAYLDDLEKQNQKIYDLTTKLSIADLQKSMLLLTQNDLHTFANQIDVELDLLKRYKEDLNLIKNSITKLSTNVDTTSEQSQKDTLRQLKNVISYLEEQVYKF | soluble
SLFAKATRNFLREVDADGDLIAVSNLNDSDKLQLLSLVTKKKRFWCWQRPKYQFLSLTLGDVLIEDQFPSPVVVESDFVKYEGKFANHVSGTLETALGKVKLNLGGSSRVESQSSFGTLRKQEVDLQQLIRDSAERTINLRNPVLQQVLEGRNEVLCVLTQKITTMQKCVISEHMQVEEKCGGIVGIQTKTVQVSATEDGNVTKDSNVVLEIPAATTIAYGVIELYVKLDGQFEFCLLRGKQGGFENKKRIDSVYLDPLVFREFAFIDMPDAAHGISSQDGPLSVLKQATLLLERNFHPFAELPEPQQTALSDIFQAVLFDDELLMVLEPVCDDLVSGLSPTVAVLGELKPRQQQDLVAFLQLVGCSLQGGCPGPEDAGSKQLFMTAYFLVSALAEMPDSAAALLGTCCKLQIIPTLCHLLRALSDDGVSDLEDPTLTPLKDTERFGIVQRLFASADISLERLKSSVKAVILKDSKVFPLLLCITLNGLCALGREHSEG | not soluble
SLFKTKWFAREARSHAITDEELCRAILETEQGKADALGGGVFKKRLHQNRERAIILAKGVSNWFYTFLYAKQDMSNINSQELAGFREIAKHYAFLTKAQLTAMINTKELTEICYDCKN | not soluble
SLGKEVATRATNDERCKILEQRLEQGMVFTEYERILKKRLVDGECSTARLPENAERNRFQDVLPYDDARVELVPTKENNTGYINASHIKVSVSGIEWDYIATQGPLQNTCQDFWQMVWEQGIAIIAMVTAEEEGGREKSFRYWPRLGSRHNTVTYGRFKITTRFRTDSGCYATTGLKMKHLLTGQERTVWHLQYTDWPEHGCPEDLKGFLSYLEEIQSVRRHTNSTSDPQSPNPPLLVHSSAGVGRTGVVILSEIMIACLEHNEVLDIPRVLDMLRQQRMMLVQTLCQYTFVYRVLIQFLKSSRLI | soluble
SLGKILSKTAIAIVLASGLLSACTSTTDVFHNGYVMDDQSLQLIPEGSSREQVLLTMGTPSTTATFGNEVFYYISQKRVRRAAFLKPSLVEQNILAIYFNKDGVIERKANYTLQDGKVFDSISRTTPTGGKDLTFLQQLLSGGTSGANIAKS | soluble
SLGNSYAGQLKTTRFEEVLHNSIEASLRSNNLVPRPIFSQLYLEAEQQLAALEGGSRVDNEEEEEEGEGGLETNGPPNPFQLHPLPEGCCTTDGFCQAGKDLRLVSISNEPMDVPAGFLLVGVKSPSLPDHLLVCAVDKRFLPDDNGHNALLGFSGNCVGCGKKGFCYFTEFSNHINLKLTTQPKKQKHLKYYLVRNAQGTLTKGPLICWKGSEFRSRQIPASTCSSSLFPALESTAAFPSEPVPGTNPSILMGAQQAGPASDHPSLNAAMGPAVFNGKDSPKCQQLAKNNLLALPRPSALGILSNSGPPKKRHKGWSPESEG | soluble
SLGSVLVDLQIATENIEGLPTEEQIVQWATGAVQPEGNEVEMTVRIVDEAESHELNLTYRGKDRPTNVLSFPFECPDEVELPLLGDLVICRQVVEREASEQEKPLMAHWAHMVVHGSLHLLGYDHIEDDEAEEMESLETQIMQGLGFDDPYLAEK | soluble
SLHSMTAFAADEHLTPWGLLACELRSVNHRFLDIVIRLPEELRALESQLRERVAARVSRGKLDLTVRLSPQEIHTGKLVVNELLLSHLSTLALRLSAQFPALRVTFAELLQIPGVLKGEQIDMTTLQGHAVALLDKVLDNFIATREREGLKMQAMIAQRASAIERIVGEVRTLIPTIREGQHNKLNARMNHLSYPVDHGRIEQELVLWLQ | not soluble
SLIDMGDYTLKELETWNEKIEGIVNEMGLNYYNQEFEIISYNGMLEAEAYTGMPSRYPHWSYGKAYEKQKTLYGYDLVGLPYEMVINSNPCIAYLMKENTLLLQILTMAHVYGHNDFFKNNRLFREGTDASETVNMFKNDADTIRNYIDNPAIGNEKVEKILDAAHAIRYQTHRVIGEKRLSYEEIRNKIIQDYNSSYKPRSIIEPYEKPVEPDLSKIPLEPEDDIIYFIENYGNLQEWERNVIEIVRRETAYFIPQIETKIMNEGWASFWHYTILNELKLPDGLHLEFLKRHNDVLSPILGSLNPYYLGFKILKDIEDRYGRDKIFEVREIERDESFIRKYLTRELCEELNLFEFSKRRGEYIIDNVADEEGWKNIRNSICSGCGMNSIPVIRVVELSKKDNNLILEHLYDGRELNMQYAEETLKYVVNLWKGKVTLKTTIEGKEYRIVCDENKKICEVK | soluble
SLKIDTHAHIFLKKLNTVANARYKPDYDASFKDYKANLDHYDFNKGVLVQPSFLGIDNEFLLQSIEKDENIKAIVVVDENIKFDELKKLKERKACGVRLNLIGKELPNFKSMVWTQFFENLSKLKMQIEIQRDLDNNLVDIVENLIPYGCNIVIDHLARANANLTNLEDLICLKNSRIFFKISGFYRAKIDYANNEQAVKFAKKIYEILKEHFPLSNFVFGSDWPHTNFEANINFSSALVAFNEVVVSKKEQEQILGDNACALFGF | soluble
SLLLAKHPVISVNGNTAVLVPEETRKLAELVNAKVEINVFHHSPERVEKIKRYLEKHGIEVLAAGDAVLEGLESARRIVDSRGILIADVVLVPLEDGDRCEILKRHGKKVIAIDLNPLSRTARMADITIVDNIIRAFPKMVEMAEEMRKWERERLKEVVENYDNSKVLAEAVEGIIQYLQKVKGELLSP | soluble
SLLNVPAGKDLPEDIYVVIEIPANADPIKYEIDKESGALFVDRFMSTAMFYPCNYGYINHTLSLDGDPVDVLVPTPYPLQPGSVTRCRPVGVLKMTDEAGEDAKLVAVPHSKLSKEYDHIKDVNDLPELLKAQIAHFFEHYKDLEKGKWVKVEGWENAEAAKAEIVASFERAKNK | soluble
